{
  "source": "paper PMC9838878",
  "about": "(Science (New York, N.Y.), 2022)",
  "binders": {"B1": {"name": "meteorin-like (METRNL), protein added as ligand (ligand, human, UniProt Q641Q3 46-311, looked up)", "chain": "QYSSDRCSWKGSGLTHEAHRKEVEQVYLRCAAGAVEWMYPTGALIVNLRPNTFSPARHLTVCIRSFTDSSGANIYLEKTGELRLLVPDGDGRPGRVQCFGLEQGGLFVEATPQQDIGRRTTGFQYELVRRHRASDLHELSAPCRPCSDTEVLLAVCTSDFAVRGSIQQVTHEPERQDSAIHLRVSRLYRQKSRVFEPVPEGDGHWQGRVRTLLECGVRPGHGDFLFTGHMHFGEARLGCAPRFKDFQRMYRDAQERGLNPCEVGTD"}},
  "biological_target": "recombinant KIT-extracellular domain-Fc fragment fusion protein (KIT-ECD-Fc) (human, UniProt P10721 26-524)",
  "sequence (P10721 26-524)": "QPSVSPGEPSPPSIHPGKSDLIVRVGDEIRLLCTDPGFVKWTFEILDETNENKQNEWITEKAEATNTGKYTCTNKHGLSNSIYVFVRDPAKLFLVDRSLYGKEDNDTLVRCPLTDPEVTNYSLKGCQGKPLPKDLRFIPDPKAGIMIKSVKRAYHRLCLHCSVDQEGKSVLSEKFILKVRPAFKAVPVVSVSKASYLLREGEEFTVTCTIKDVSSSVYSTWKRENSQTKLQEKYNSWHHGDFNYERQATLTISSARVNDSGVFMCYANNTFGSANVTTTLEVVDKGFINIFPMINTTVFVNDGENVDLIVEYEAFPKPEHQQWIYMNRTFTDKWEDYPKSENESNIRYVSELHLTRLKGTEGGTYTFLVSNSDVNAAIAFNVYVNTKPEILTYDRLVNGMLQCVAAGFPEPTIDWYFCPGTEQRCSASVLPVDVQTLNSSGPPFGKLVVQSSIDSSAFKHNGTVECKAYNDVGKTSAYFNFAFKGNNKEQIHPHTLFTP",
  "assay": "MST",
  "data": [
    {"binder": "B1", "values": [
      {"measurement": "binding result", "result": "binds"}
    ]}
  ]
}
